These results are taken from US20230203134A1 (published 2023).

As usually defined, the EC50 is the midpoint of the concentration-response curve. What is called Kd is a measure of binding affinity in units of concentration. The low end stands for a tighter complex, the high end for a looser complex.

Read-outs that look alike come from different tables or passages of the source.

The target in test [1] is T1, SARS-CoV-2 S trimer (soluble spike ectodomain trimer) (SARS-CoV-2, UniProt P0DTC2 14-1213). Kind of test: ELISA. A general note: In an ELISA, binding on a coated surface is turned into a signal by an enzyme label.
The target in test [2] is T1, SARS-CoV-2 S trimer (soluble spike …). Description: SPR. For orientation: SPR reads the build-up and loss of mass on a sensor chip optically.
For test [3] the target is unchanged. Kind of test: SPR. The source holds these as a separate data set.
Test [4] addresses T2, SARS-CoV-2 receptor binding domain (RBD) (SARS-CoV-2, UniProt P0DTC2 319-591). Description: SPR.
The target of test [5] is T1, SARS-CoV-2 S trimer (soluble spike …). Kind of test: SPR. The source holds these as a separate data set.
Test [6] has as its target T2, SARS-CoV-2 receptor binding domain (RBD). Kind of test: ELISA.

B1: monoclonal antibody 2-51 (antibody, V domains shown)
VH: QVQLVQSGAEVKKPGASVKVSCKVSGYTLIELSMHWVRQAPGKGLEWMGGFDPEDVETIYAQQFQGRVTMTEDTSTDTAYMELSSLRSEDTAVYYCATGWAYKSTWYFGYWGQGTLVTVSS
VL: QSALTQPPSASGSPGQSVTISCTGTSSDVGGYNYVSWYQQHPGKAPKLMIYEVSKRPSGVPDRFSGSKSGNTASLTVSGLQAEDEADYYCSSYAGSRMGFGGGTKLTVL
In the case of B1, the EC50 in test [1] worked out at 0.017 µg/mL. In test [2], this molecule displayed a Kd of 77.1 nM.

B2: monoclonal antibody 2-4 (antibody, V domains shown)
VH: QVQLVQSGAEVKKPGASVKVSCKASGYTFTGYYMHWVRQAPGQGLEWMGWINPNSGGTNYTQMFQGRVTMTRDTSISTAYMEVSRLRSDDTAVYYCARDRSWAVVYYYMDVWGKGTTVTVSS
VL: QSALTQPPSASGSPGQSVTISCTGTSSDVGGYNYVSWYQQHPGKAPKLMIYEVSKRPSGVPDRFSGSKSGNTASLTVSGLQAEDEADYYCSSYAGSNNLVFGGGTKLTVL
For the molecule B2, the Kd in test [3] was 41.2 nM; in test [4] it was 34.2 nM; in test [5], 8.7 nM. Moreover, the EC50 in test [1] is 0.018 µg/mL; in test [6] it was 0.021 µg/mL.

B3: monoclonal antibody 2-15 (antibody, V domains shown)
VH: QVQLVQSGAEVKKPGASVRVSCKASGYTFTGYYMHWVRQAPGQGLEWMGWINPISDGTNYAQKFQGWVTMTRDTSISTVYMELSRLRSDDTAVYYCARGGSRCSGGNCYGWAYDAFDIWGQGTMITVSS
VL: QSALTQPASVSGSPGQSITISCTGTSSDVGGYNFVSWYQQHPGKAPKLMIYDVSKRPSGVSNRFSGSKSGNTASLTISGLQAEDEADCYCSSYTSSSTFVFGTGTKVTVL
Regarding B3, the Kd in test [5] worked out at 5.7 nM. For the same molecule, the EC50 in test [1] came out at 0.006 µg/mL; in test [6], 0.008 µg/mL.

B4: monoclonal antibody 2-38 (antibody, V domains shown)
VH: EVQLVESGGGLVKPGGSLRLSCAASGFTFSSYSMNWVRQAPGKGLEWVSSISSSSSYIYYADSVKGRFTISRDNAKNSLYLQMNSLRAEDTAVYYCTRAGWELRLDAFDIWGQGTMVTVSS
VL: SSELTQDPAVSVALGQTVRITCQGDSLRSSYASWYQQKPGQAPILVIYDKNNRPSGIPDRFSGSSSGNTASLTITGAQAEDEADYYCNSRDSSGILFGGGTKLTVL
B4: in test [5], binding was characterised by a dissociation constant (Kd) of 51.4 nM. Further, the 50% effective concentration (EC50) was 0.305 µg/mL in test [1] and 0.289 µg/mL in test [6].
